This note sets out measurements from FireProtDB (doi:10.1021/bi9928694).

B1: Lysozyme C, P61626 (parent)
chain: MKALIVLGLVLLSVTVQGKVFERCELARTLKRLGMDGYRGISLANWMCLAKWESGYNTRATNYNAGDRSTDYGIFQINSRYWCNDGKTPGAVNACHLSCSALLQDNIADAVACAKRVVRDPQGIRAWVAWRNRCQNRDVRQYVQGCGV

This series covers variants of B1. Particulars: Homo sapiens, reversible: yes, structure 1LZ1, whole UniProt chain shown.
The mark [1] stands for this setting: pH 2.7, Thermal, DSC, glycine-HCl 0.05 M.
[2] abbreviates: pH 4, 10 °C, GdnHCl, CD, glycine-HCl 40 mM.
Where [3] appears, read: pH 2.7, 64.9 °C, Thermal, DSC, glycine-HCl 0.05 M.

On to MKALIVLGLVLLSVTVQGKVFERCELARTLKRLGMDGYRGISLANWMCLAKWESGYNTRATNYNAGDRSTDYGIFGINSRYWCNDGKTPGAVNACHLSCSALLQDNIADAVACAKRVVRDPQGIRAWVAWRNRCQNRDVRQYVQGCGV [Q76G], for which, under setting [1], the “change of melting temperature, mutant - wild type (higher = more stable)” value worked out at 5.7 °C; the “heat capacity change of unfolding” value stood at 1.34 kcal/mol/K; the “unfolding enthalpy (calorimetric)” value came to 455 kJ/mol. Under setting [2], the “ddG of mutation (higher = less stable)” value is -8.62 kJ/mol, the “denaturant midpoint (higher = more stable)” value (“denaturant midpoint” for short) worked out at 4.26 M and the unfolding free energy worked out at 68.6 kJ/mol.

As usually defined, the Tm is the temperature at which the thermal transition is half complete. In the case of MKALIVLGLVLLSVTVQGKVFERCELARTLKRLGMDGYRGISLANWMCLAKWESQYNTRATNYNAGDRSTDYGIFQINSRYWCNDGKTPGAVNACHLSCSALLQDNIADAVACAKRVVRDPQGIRAWVAWRNRCQNRDVRQYVQGCGV [G55Q], under setting [3], the “ddG of mutation (higher = less stable)” value was 1.09 kJ/mol, the “heat capacity change of unfolding” value worked out at 1.15 kcal/mol/K and the “unfolding enthalpy (calorimetric)” value came out at 450 kJ/mol. Besides, under setting [1], the Tm came to 64.9 °C, the “heat capacity change of unfolding” value is 1.15 kcal/mol/K and the “unfolding enthalpy (calorimetric)” value amounted to 450 kJ/mol. Besides, under setting [2], the “ddG of mutation (higher = less stable)” value turned out to be 3.6 kJ/mol, the “denaturant midpoint” value came out at 3.79 M and the unfolding free energy was 56.4 kJ/mol.

MKALIVLGLVLLSVTVQGKVFERCELARTLKRLGMDGYRGISLANWMCLAKWESGYNTRATNYNAGDGSTDYGIFQINSRYWCNDGKTPGAVNACHLSCSALLQDNIADAVACAKRVVRDPQGIRAWVAWRNRCQNRDVRQYVQGCGV [R68G]: under setting [3], the “ddG of mutation (higher = less stable)” value is -1.09 kJ/mol, the “heat capacity change of unfolding” value was 1.46 kcal/mol/K and the “unfolding enthalpy (calorimetric)” value amounted to 420 kJ/mol. Moreover, under setting [1], the Tm was 65.8 °C and the “change of melting temperature, mutant - wild type (higher = more stable)” value turned out to be 0.9 °C.

As to MKALIVLGLVLLSVTVQGKVFERCELARTLKRLGMDGYRGISLANWMCLAKWESGYNTRATNYNAGDRSTDYGIFQINSRYWCNDGKTPGAVNACGLSCSALLQDNIADAVACAKRVVRDPQGIRAWVAWRNRCQNRDVRQYVQGCGV [H96G], under setting [3], the “ddG of mutation (higher = less stable)” value is 0.502 kJ/mol, the “heat capacity change of unfolding” value amounted to 1.58 kcal/mol/K and the “unfolding enthalpy (calorimetric)” value is 455 kJ/mol. Besides, under setting [1], the Tm amounted to 64.9 °C, the “heat capacity change of unfolding” value was found to be 1.58 kcal/mol/K and the “unfolding enthalpy (calorimetric)” value was determined as 455 kJ/mol. Besides, under setting [2], the “ddG of mutation (higher = less stable)” value was 2.22 kJ/mol, the “denaturant midpoint” value is 3.81 M and the unfolding free energy was found to be 57.8 kJ/mol.
